Source: publication PMC11528121, “Structural basis of the bacterial flagellar motor rotational switching” (Cell Research, 2024)

B1: FliF (natural protein, UniProt P15928 1-560, looked up)
chain: MSATASTATQPKPLEWLNRLRANPRIPLIVAGSAAVAIVVAMVLWAKTPDYRTLFSNLSDQDGGAIVAQLTQMNIPYRFANGSGAIEVPADKVHELRLRLAQQGLPKGGAVGFELLDQEKFGISQFSEQVNYQRALEGELARTIETLGPVKSARVHLAMPKPSLFVREQKSPSASVTVTLEPGRALDEGQISAVVHLVSSAVAGLPPGNVTLVDQSGHLLTQSNTSGRDLNDAQLKFANDVESRIQRRIEAILSPIVGNGNVHAQVTAQLDFANKEQTEEHYSPNGDASKATLRSRQLNISEQVGAGYPGGVPGALSNQPAPPNEAPIATPPTNQQNAQNTPQTSTSTNSNSAGPRSTQRNETSNYEVDRTIRHTKMNVGDIERLSVAVVVNYKTLADGKPLPLTADQMKQIEDLTREAMGFSDKRGDTLNVVNSPFSAVDNTGGELPFWQQQSFIDQLLAAGRWLLVLVVAWILWRKAVRPQLTRRVEEAKAAQEQAQVRQETEEAVEVRLSKDEQLQQRRANQRLGAEVMSQRIREMSDNDPRVVALVIRQWMSNDHE
notes: FliF, MS ring protein, Salmonella Typhimurium LT2; RBM1, RBM2, RBM3, β-collar, C-terminal region FliFC; Subunit of the purified complex m8; 34 copies in the MS ring; also called FliFC; MS ring protein
B2: FlgC (natural protein)
chain: MALLNIFDIAGSALAAQSKRLNVAASNLANADSVTGPDGQPYRAKQVVFQVDAAPGQATGGVKVASVIESQAPEKLVYEPGNPLADANGYVKMPNVDVVGEMVNTMSASRSYQANIEVLNTVKSMMLKTLTLGQ
notes: FlgC, proximal rod protein of the flagellar basal body, Salmonella Typhimurium LT2; Subunit of the purified complex m8; 6 copies in the rod; also called FlgC^1; FlgC^6
B3: CheY D13K/Y106W (constitutively active double mutant) (natural protein)
chain: MADKELKFLVVDKFSTMRRIVRNLLKELGFNNVEEAEDGVDALNKLQAGGFGFIISDWNMPNMDGLELLKTIRADSAMSALPVLMVTAEAKKENIIAAAQAGASGWVVKPFTAATLEEKLNKIFEKLGM
notes: CheY, chemotaxis signal protein, gene amplified from genomic DNA of Salmonella enterica serovar Typhimurium LT2; double mutant D13K/Y106W; Tag linked through an HRV3C protease site; residues of the site may remain at the C-terminus after cleavage; Vector pET-14b; source: E. coli BL21 (DE3), purified (Streptactin column, PreScission protease digestion, Superdex 75); not shown: Twin-Strep-tag II, …
B4: FliG (natural protein, UniProt P0A1J9 1-331, looked up)
chain: MSNLSGTDKSVILLMTIGEDRAAEVFKHLSTREVQALSTAMANVRQISNKQLTDVLSEFEQEAEQFAALNINANEYLRSVLVKALGEERASSLLEDILETRDTTSGIETLNFMEPQSAADLIRDEHPQIIATILVHLKRSQAADILALFDERLRHDVMLRIATFGGVQPAALAELTEVLNGLLDGQNLKRSKMGGVRTAAEIINLMKTQQEEAVITAVREFDGELAQKIIDEMFLFENLVDVDDRSIQRLLQEVDSESLLIALKGAEPPLREKFLRNMSQRAADILRDDLANRGPVRLSQVENEQKAILLIVRRLAETGEMVIGSGEDTYV
notes: FliG, flagellar motor switch protein of the C ring, Salmonella Typhimurium LT2; domains FliGN, FliGM, FliGCN, FliGCC; Subunit of the purified complex m8; 34 copies in the C ring; also called FliGN; FliGM
B5: FliN (natural protein, UniProt P26419 1-137, looked up)
chain: MSDMNNPSDENTGALDDLWADALNEQKATTTKSAADAVFQQLGGGDVSGAMQDIDLIMDIPVKLTVELGRTRMTIKELLRLTQGSVVALDGLAGEPLDILINGYLIAQGEVVVVADKYGVRITDIITPSERMRRLSR
notes: FliN, flagellar motor switch protein of the C ring, Salmonella Typhimurium LT2; FliN1, FliN2 and FliN3 are the three copies in one protomer; Subunit of the purified complex m8; 102 copies in the C ring; also called FliN1; FliN2
B6: FliM (natural protein, UniProt P26418 1-334, looked up)
chain: MGDSILSQAEIDALLNGDSDTKDEPTPGIASDSDIRPYDPNTQRRVVRERLQALEIINERFARQFRMGLFNLLRRSPDITVGAIRIQPYHEFARNLPVPTNLNLIHLKPLRGTGLVVFSPSLVFIAVDNLFGGDGRFPTKVEGREFTHTEQRVINRMLKLALEGYSDAWKAINPLEVEYVRSEMQVKFTNITTSPNDIVVNTPFHVEIGNLTGEFNICLPFSMIEPLRELLVNPPLENSRHEDQNWRDNLVRQVQHSELELVANFADIPLRLSQILKLKPGDVLPIEKPDRIIAHVDGVPVLTSQYGTVNGQYALRVEHLINPILNSLNEEQPK
notes: FliM, flagellar motor switch protein of the C ring, Salmonella Typhimurium LT2; domains FliMN, FliMM, FliMC; Subunit of the purified complex m8; 34 copies in the C ring; also called FliMN; FliMM
B7: FliE (natural protein, UniProt P26462 1-104, looked up)
chain: MAAIQGIEGVISQLQATAMAARGQDTHSQSTVSFAGQLHAALDRISDRQAAARVQAEKFTLGEPGIALNDVMADMQKASVSMQMGIQVRNKLVAAYQEVMSMQV
notes: FliE, rod protein of the flagellar basal body, Salmonella Typhimurium LT2; Subunit of the purified complex m8; 6 copies in the rod; also called FliE^6

Experiments:
[1] = target: the molecule itself; test: cryo-EM structure; basal body–hook complex in the default CCW state purified from S. Typhimurium ΔfliCD in TET buffer (10 mM Tris-HCl pH 8.0, 5 mM EDTA, 0.1% Triton X-100); C ring C34 map 5.9 Å, four protomers 4.0 Å, whole complex 7.4 Å, local maps 3.0–4.3 Å
FliF [2] = target: B1; test: as above; settings: both partners purified
FliM [3] = target: B6; test: cryo-EM structure; 5 μL purified CCW basal body–hook complex mixed with 1 μL CheY** (2 mg/mL), 15 min at room temperature, 1.5 h on ice; CW state; C ring C34 map 5.6 Å, four protomers 4.4 Å, whole complex 4.3 Å, local maps 2.8–3.8 Å; settings: both partners purified
[4] = target: T1, C ring-containing flagellar basal body–hook complex in the default CCW state (Salmonella enterica serovar Typhimurium …, UniProt P0A1J9 1-331; P26418 1-334; P26419 1-137; P15928 1-560; P54700 22-245; P54702 …); test: as above; settings: both partners purified
T1 construct: FliG, C ring, Salmonella Typhimurium LT2; FliM, C ring, Salmonella Typhimurium LT2; FliN, C ring, Salmonella Typhimurium LT2; FliF, MS ring, Salmonella Typhimurium LT2; FliP, export apparatus, Salmonella Typhimurium LT2; FliR, export apparatus, Salmonella Typhimurium LT2; FliQ, export apparatus, Salmonella Typhimurium LT2; FliE, rod, Salmonella Typhimurium LT2; FlgB, rod, Salmonella Typhimurium …

FliM [5] = target: B6; test: cryo-EM structure; basal body–hook complex in the default CCW state purified from S. Typhimurium ΔfliCD in TET buffer (10 mM Tris-HCl pH 8.0, 5 mM EDTA, 0.1% Triton X-100); C ring C34 map 5.9 Å, four protomers 4.0 Å, whole complex 7.4 Å, local maps 3.0–4.3 Å; settings: both partners purified
FliF [6] = target: B1; test: cryo-EM structure; 5 μL purified CCW basal body–hook complex mixed with 1 μL CheY** (2 mg/mL), 15 min at room temperature, 1.5 h on ice; CW state; C ring C34 map 5.6 Å, four protomers 4.4 Å, whole complex 4.3 Å, local maps 2.8–3.8 Å; settings: both partners purified

B1
stoichiometry N [1]: 34

B2
binding result (FliF [2]): binds

B3
binding result (FliM [3]): binds | stoichiometry N [4]: 34

B4
stoichiometry N (FliM [5]): 1 | stoichiometry N [1]: 34 | binding result (FliF [6]): binds

B5
stoichiometry N (FliM [5]): 3 | binding result [1]: binds

B6
stoichiometry N [1]: 34

B7
binding result (FliF [2]): binds
